Article PMC10117238, “Molecular mechanism underlying the increased risk of colorectal cancer metastasis caused by single nucleotide polymorphisms in LI-cadherin gene” (Scientific Reports, 2023)

Columns and labels:
[1] = biological target: LI-cadherin EC1-4 (Homo sapiens) (UniProt Q12864); experiment: SV-AUC; conditions: cited from earlier work
[2] = biological target: LI-cadherin EC1-2 (Homo sapiens) (UniProt Q12864); experiment: SV-AUC; conditions: cited from earlier work
[3] = biological target: the molecule itself; experiment: AUC; sedimentation velocity (SV-AUC), 20 °C, 42,000 rpm, UV detection; 1-120 µM EC1-4K115E or 1-60 µM EC1-2K115E; buffer A (10 mM HEPES-NaOH pH 7.5, 150 mM NaCl, 3 mM CaCl2); homodimer to monomers
LI-cadherin EC1-2K115E = biological target: T1, LI-cadherin EC1-2K115E (human); experiment: as above; conditions: both partners purified
T1 chain: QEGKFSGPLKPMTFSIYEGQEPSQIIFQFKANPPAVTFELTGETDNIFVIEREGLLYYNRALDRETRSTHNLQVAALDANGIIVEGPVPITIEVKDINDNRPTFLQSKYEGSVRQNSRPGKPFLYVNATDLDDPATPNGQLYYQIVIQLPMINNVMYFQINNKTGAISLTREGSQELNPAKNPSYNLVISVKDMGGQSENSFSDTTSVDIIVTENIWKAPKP

LI-cadherin EC1-4 (from UniProt Q12864)
Kd [1]: 39.8 µM

LI-cadherin EC1-2 (from UniProt Q12864)
Kd [2]: 75 µM

B1: LI-cadherin EC1-4K115E (domain or fragment, human)
chain: QEGKFSGPLKPMTFSIYEGQEPSQIIFQFKANPPAVTFELTGETDNIFVIEREGLLYYNRALDRETRSTHNLQVAALDANGIIVEGPVPITIEVKDINDNRPTFLQSKYEGSVRQNSRPGKPFLYVNATDLDDPATPNGQLYYQIVIQLPMINNVMYFQINNKTGAISLTREGSQELNPAKNPSYNLVISVKDMGGQSENSFSDTTSVDIIVTENIWKAPKPVEMVENSTDPHPIKITQVRWNDPGAQYSLVDKEKLPRFPFSIDQEGDIYVTQPLDREEKDAYVFYAVAKDEYGKPLSYPLEIHVKVKDINDNPPTCPSPVTVFEVQENERLGNSIGTLTAHDRDEENTANSFLNYRIVEQTPKLPMDGLFLIQTYAGMLQLAKQSLKKQDTPQYNLTIEVSDKDFKTLCFVQINVID
notes: Liver Intestine-cadherin (LI-cadherin, CDH17), human; the first four N-terminal extracellular cadherin repeats EC1-4, with the SNP change Lys115 to Glu (c.343A>G); Made in mammalian cells, N-glycosylated; K115E is a SNP variant found in patients, made here by site-directed mutagenesis; also called K115E of EC1-4; source: Expi293F, transfected (pcDNA3.4), purified from the supernatant (Ni-NTA, SEC)
Kd [3]: 51.6 µM
stoichiometry N [3]: 2

B2: LI-cadherin EC1-2K115E (domain or fragment)
chain: T1 chain
modifications: N-glycosylated (Expi293F expression, N-glycans on EC2); Ca2+-bound (3 mM CaCl2). Limits by convention: mature N-terminus Gln23 (as in 7CYM) to end of UniProt Cadherin 2 domain (244). C-terminal …
Kd (LI-cadherin EC1-2K115E): 343 µM
stoichiometry N (LI-cadherin EC1-2K115E): 2
